Laboratory results taken from patent US20060121042A1 (AstraZeneca / MedImmune, published 2006).

Columns and labels:
r murine EphA7 = target: T1, r murine EphA7 (mouse, UniProt Q61772); assay: activity ELISA, IgG on coated antigen
T1 construct: recombinant Fc fusion (R&D Systems); also called rmuEphA7-Fc; mEphA7
T1 sequence (receptor-Fc fusion, looked up): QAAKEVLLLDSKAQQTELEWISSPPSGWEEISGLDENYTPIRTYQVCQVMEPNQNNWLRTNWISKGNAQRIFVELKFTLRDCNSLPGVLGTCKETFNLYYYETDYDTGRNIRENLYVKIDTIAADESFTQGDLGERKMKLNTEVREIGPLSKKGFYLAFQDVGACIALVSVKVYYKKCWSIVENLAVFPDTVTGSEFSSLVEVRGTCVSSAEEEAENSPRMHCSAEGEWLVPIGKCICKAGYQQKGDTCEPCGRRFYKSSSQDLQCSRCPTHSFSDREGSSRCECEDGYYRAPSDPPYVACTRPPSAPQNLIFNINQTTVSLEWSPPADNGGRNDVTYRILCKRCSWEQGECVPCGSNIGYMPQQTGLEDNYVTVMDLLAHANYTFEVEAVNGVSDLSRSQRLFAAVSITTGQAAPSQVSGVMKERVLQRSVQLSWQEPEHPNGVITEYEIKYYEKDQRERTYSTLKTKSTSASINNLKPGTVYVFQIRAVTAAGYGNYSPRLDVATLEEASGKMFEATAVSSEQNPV

r murine EphA4 = target: T2, r murine EphA4 (mouse, UniProt Q03137); assay: activity ELISA, IgG on coated antigen
T2 construct: recombinant Fc fusion (R&D Systems); also called rmuEphA4-Fc; mEphA4
T2 sequence (Q03137 20-547 limits assumed): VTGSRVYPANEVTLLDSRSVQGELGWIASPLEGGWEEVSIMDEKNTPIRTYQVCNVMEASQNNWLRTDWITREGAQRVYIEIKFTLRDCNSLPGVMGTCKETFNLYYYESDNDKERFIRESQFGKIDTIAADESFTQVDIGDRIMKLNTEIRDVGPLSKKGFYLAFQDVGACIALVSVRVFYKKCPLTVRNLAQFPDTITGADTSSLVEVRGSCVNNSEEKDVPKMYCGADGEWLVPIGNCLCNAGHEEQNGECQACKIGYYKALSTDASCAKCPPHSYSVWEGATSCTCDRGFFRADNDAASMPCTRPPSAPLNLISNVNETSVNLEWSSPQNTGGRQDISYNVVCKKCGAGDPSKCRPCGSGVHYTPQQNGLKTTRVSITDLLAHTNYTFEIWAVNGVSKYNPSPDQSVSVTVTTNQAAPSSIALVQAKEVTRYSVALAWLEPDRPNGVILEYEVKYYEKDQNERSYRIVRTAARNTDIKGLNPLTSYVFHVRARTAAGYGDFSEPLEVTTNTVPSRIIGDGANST

r rat EphA5 = target: T3, r rat EphA5 (rat, UniProt P54757); assay: Activity ELISA, receptor coated on the plate, purified IgG, anti-human kappa-HRP
T3 construct: part of an Fc fusion; also called rEphA5; rratEphA5-Fc
T3 sequence (P54757 27-575 limits assumed): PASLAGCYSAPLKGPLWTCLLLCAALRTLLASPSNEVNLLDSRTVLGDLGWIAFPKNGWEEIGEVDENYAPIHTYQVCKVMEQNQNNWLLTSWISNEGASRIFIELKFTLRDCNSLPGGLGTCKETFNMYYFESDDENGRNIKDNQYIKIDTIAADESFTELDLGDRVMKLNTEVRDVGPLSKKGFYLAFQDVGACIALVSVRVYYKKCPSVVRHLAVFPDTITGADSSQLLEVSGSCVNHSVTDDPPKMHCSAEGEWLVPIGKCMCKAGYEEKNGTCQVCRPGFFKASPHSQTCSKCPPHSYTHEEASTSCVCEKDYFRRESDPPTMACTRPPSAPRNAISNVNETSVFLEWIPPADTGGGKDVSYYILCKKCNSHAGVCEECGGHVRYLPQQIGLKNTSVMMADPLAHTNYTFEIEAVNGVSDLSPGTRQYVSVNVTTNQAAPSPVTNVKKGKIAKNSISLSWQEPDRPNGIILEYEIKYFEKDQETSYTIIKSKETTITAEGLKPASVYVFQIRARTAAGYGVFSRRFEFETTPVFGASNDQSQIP
Experimental: (§1) Secondary screening of IgG constructs of affinity optimized combinatorial variants with additional EphA receptors: With purified IgG constructs of the nine combinatorial variants, additional secondary screening assays were performed using the Activity ELISA (see above) and recombinant EphA receptor proteins. More precisely, Nunc Maxisorp plates were coated with the following rEphA proteins: rhuEphAl-Fc; 0.5 μg/well, rmuEphA2-Fc; 0.5 μg/well, rmuEphA3-Fc: 0.1 μg/well, rmuEphA4-Fc; 0.1 μg/well, rratEphA5-Fc; 0.5 μg/well, rmuEphA6-Fc; 0.5 μg/well, rmuEphA7-Fc; 0.1 μg/well, rEphA8; 0.2 μg/well (all R&D Systems), rhuEphA2-Fc; 0.5 μg/well, and rhuEphA4-His; 0.1 μg/well (both produced at MedImmune, Inc.). Plates were blocked with 3% BSA+0.1% Tween20 for 2 h. […] Incubation with a goat anti-human kappa horseradish peroxydase (HRP) conjugate then followed. HRP activity was detected with TMB substrate and the reaction quenched with 0.2 M H₂SO₄. Plates were read at 450 nm. Data was analyzed by normalizing Fab concentrations to the corresponding activity data (see FIGS. 12A-12J and 14).

[1] = target: T4, Human EphA4-Fc fusion protein (human, UniProt P54764 20-547); assay: BIAcore, IgG immobilized on the sensor chip, EphA4-Fc as analyte; comment on the sheet: off-rate below LOD
T4 construct: not shown: Fc portion of a human IgG1
T4 sequence (P54764 20-547): as the sequence (Q03137 20-547 limits assumed) above, with A59P, S121N, G124V, Q250R, N251S, S270T, R378K, S406N counted along it
Experimental: FIG. 15A-15B. […] Binding affinities were measured using the BIAcore assay. […] Variant kinetic measurements for human EphA4 and were obtained using BIAcore with immobilized variant antibodies and human EphA4-Fc and EphA4-His as analytes.

r murine EphA8 = target: T5, r murine EphA8 (mouse, UniProt O09127); assay: Activity ELISA, receptor coated on the plate, purified IgG, anti-human kappa-HRP, OD 450 nm
T5 construct: recombinant soluble protein coated on the plate; also called mEphA8; rEphA8
T5 sequence (receptor construct, looked up): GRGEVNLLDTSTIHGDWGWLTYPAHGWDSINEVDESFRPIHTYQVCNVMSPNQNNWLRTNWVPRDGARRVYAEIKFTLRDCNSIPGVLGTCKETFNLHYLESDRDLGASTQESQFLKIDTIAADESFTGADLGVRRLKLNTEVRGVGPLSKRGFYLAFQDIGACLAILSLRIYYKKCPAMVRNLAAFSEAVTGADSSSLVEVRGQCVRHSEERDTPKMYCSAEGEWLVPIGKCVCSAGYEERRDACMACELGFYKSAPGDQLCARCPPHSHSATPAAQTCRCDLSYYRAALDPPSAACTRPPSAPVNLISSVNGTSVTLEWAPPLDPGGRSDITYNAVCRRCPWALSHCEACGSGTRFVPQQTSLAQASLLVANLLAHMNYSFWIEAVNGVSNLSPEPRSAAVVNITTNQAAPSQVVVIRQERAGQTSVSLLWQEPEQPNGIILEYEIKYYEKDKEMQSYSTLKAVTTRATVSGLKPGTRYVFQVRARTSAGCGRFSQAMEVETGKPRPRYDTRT
Experimental: as §1

mEphA7 = target: T6, mEphA7 (mouse, UniProt Q61772); assay: ELISA, receptor coated on the plate, purified IgG, anti-human kappa-HRP
T6 construct: part of an Fc fusion; also called rmuEphA7-Fc
T6 sequence (receptor-Fc fusion, looked up): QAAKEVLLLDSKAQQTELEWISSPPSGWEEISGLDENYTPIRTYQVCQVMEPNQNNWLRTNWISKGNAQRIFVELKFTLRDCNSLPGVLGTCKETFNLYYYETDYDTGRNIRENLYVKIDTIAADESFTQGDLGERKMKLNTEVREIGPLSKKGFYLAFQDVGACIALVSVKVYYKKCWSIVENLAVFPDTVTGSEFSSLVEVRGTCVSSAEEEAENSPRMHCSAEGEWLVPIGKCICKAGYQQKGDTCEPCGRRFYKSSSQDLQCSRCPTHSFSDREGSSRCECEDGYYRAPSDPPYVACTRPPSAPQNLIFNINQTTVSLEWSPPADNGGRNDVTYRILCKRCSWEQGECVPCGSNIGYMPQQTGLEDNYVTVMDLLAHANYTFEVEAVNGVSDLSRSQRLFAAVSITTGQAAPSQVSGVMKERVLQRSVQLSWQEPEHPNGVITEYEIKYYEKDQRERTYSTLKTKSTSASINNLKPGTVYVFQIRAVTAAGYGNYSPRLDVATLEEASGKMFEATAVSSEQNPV

mEphA4 = target: T7, mEphA4 (mouse, UniProt Q03137); assay: as above
T7 construct: part of an Fc fusion; also called rmuEphA4-Fc
T7 sequence (Q03137 20-547 limits assumed): as the sequence (Q03137 20-547 limits assumed) above

binding result (r murine EphA7): binds | binding result (r murine EphA4): binds | binding result (r rat EphA5): binds | Kd [1]: 6 pM | koff [1]: 8.66e-07 s⁻¹ | kon [1]: 147000 M⁻¹ s⁻¹ | binding result (r murine EphA8): binds | binding result (mEphA7): binds | binding result (mEphA4): binds
B1: 3A12 IgG1 (affinity optimized combinatorial variant of mAb GEA44 in human IgG1 format) (antibody, V domains shown)
VH: QVQLLQSGAEVKKPGASVKVPCKASGYTFTSRAMSWVRQAPGQGLEWMGWINTNTGNPTYAQGFTGRFVFSLDTSVSTAYLQISSLKAEDTAVYYCARVRFTVYGDGMDVWGQGTLVTVSS
VL: EIVLTQSPATLSVSPGERATLSCRASQSVSSNLAWYQQKPGQAPRLLIYGASTWATGIPDRFSASGSGTDFTLTISRVEPEDFAVYYCQQYGPSWTFGQGTKVEIK
